US20210380707A1
Residue numbers refer to the chain shown, from its start.

B1: 4E6G9 (antibody, V domains shown)
VH: QIQLVQSGPELKKAGETVKISCKASGYTFAAYSMHWVKQAPGKGLKWMGWINTETGEPTYADDFKGRFAFSLETSASTAYLQINNLKNEDTATYFCTRDDYDGGRFSYWYFAVWGAGTTVTVSS
VL: DIQMTQSPSSLSASLGGKVTITCKASQDINKYIAWYQHRPGKGPRLLIRYTSTLQPGIPSRFSGSGSGRDYSFSINNLEPEDIATYYCLQYDNLLTFGGGTKLEIK
B2: 18F8A8 (antibody, IgG1, V domains shown)
VH: QVTLKESGPGILQPSQTLSLTCSFSGFSLSTSNMGVAWIRQPLGKGLEWLLYILWNDTKYYNPALKSRLSISKDTYNNQVFLKIVNVDTADTATYYCARIRRDYALDYWGQGTSVTVSS
VL: DIVMSQSPSSLAVSVGEKVTMNCKSSQSLLYSNNQKNYLAWYQQKPGQSPKLLIYWASTRESGVPDRFTGSGSGTDFTLTISSVKAEDLAVYYCQQYYIYPLAFGGGTKLEIK
B3: 19H7E4 (antibody, IgG1, V domains shown)
VH: QVTLKESGPGILQPSQTLSLTCSFSGFSLSTSNVGVGWIRQPSGKGLEWLLHILWNDGKYYNPALKSRLTISKDTSTNQVFLKIADVDTADSATYYCARLRRDYGMDYWGQGTSVTVSS
VL: B2 VL with N22S, N33Y, I99T, L102Y
B4: 16D7C8 (antibody, IgG3, V domains shown)
VH: QVQLQQSGPELVKPGASVRISCKASGYTFTSFYIHWVKQRPGQGLEWIGWISPINININYNEKFKGKATLTADKSSSTVYMQLSSLTSEDSAVYFCEGTSENFDVWGAGTTVTVSS
VL: DVLMTQIPLSLPVSLGDQASISCRSTQNIVHSNGNTYLEWYLQKPGQSPKLLIYKVSNRFSGVPDRFRGSGSGTEFTLKITRVEADDLGVYYCFQGSHVPFTFGAGTKLELK
B5: 3H11D12E7 (antibody, V domains shown)
VH: QIQLVQSGPELKKPGETVKISCKASGYTFTDYSMHWVKQAPGKGLKWMGWINTETGEPTYADDFKGRFAFSLETSASTAYLQINNLKNDDTATYFCARSFYRYDWYFDVWGAGTTVTVSS
VL: QIVLTQSPAIMSASPGEKVTITCSASSSVSFMHWFQQKPGTSPKLWIYSTSNLASGVPARFSGSGSGTSYSLTISRMEAEDAATYYCQQRTSFPPTFGGGTNLEIK
B6: 11E12E8 (antibody, IgG1, V domains shown)
VH: DVQLVESGGGLVQPGGSRKLSCAASGFTFSRFGMNWVRQAPEKGLEWVAYISSGSGDIYYADTVKGRFTISRDNPKNTLFLQMTSLRSEDTAMYYCAVTWFAYWGQGTLVTVSA
VL: QAVVTQEPALTTSPGETVTLTCRSSTGAVTTSNYANWVQEKPDHLFTGLIGGTNNRAPGVPARFSGSLIGDKAALTITGAQTEDEAIYFCVLWYSNHFIFGSGTKVTVL

Biological target: recombinant human CD70 tagged with mouse IgG2a Fc (AcroBiosystems Cat#CDL-H525a) (human; mouse) (UniProt P32970)
Sequence (P32970 39-193): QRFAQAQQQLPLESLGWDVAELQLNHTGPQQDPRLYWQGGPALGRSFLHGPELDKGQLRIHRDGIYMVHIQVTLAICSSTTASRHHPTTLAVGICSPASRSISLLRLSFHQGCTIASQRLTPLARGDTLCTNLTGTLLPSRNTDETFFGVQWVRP
Experiment: indirect ELISA, hybridoma supernatant, coated antigen A at 1 µg/ml

Row | Binder | OD 450 [OD 450]
1 | B1 | 2.51
2 | B2 | 1.97
3 | B3 | 1.85
4 | B4 | 2.12
5 | B5 | 1.87
6 | B6 | 1.01

Biological target: Mouse IgG2a protein (AcroBiosystems Cat# IGA-M5207) (mouse) [IgG part: P01863]
Sequence (P01863 98-330): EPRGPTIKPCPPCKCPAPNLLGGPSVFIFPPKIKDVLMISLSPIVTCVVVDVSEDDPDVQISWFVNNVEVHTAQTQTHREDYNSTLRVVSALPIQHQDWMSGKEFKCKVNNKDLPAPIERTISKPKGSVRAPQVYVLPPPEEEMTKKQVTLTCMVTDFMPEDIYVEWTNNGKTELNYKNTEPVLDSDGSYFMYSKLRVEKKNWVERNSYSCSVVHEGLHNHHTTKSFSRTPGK
Experiment: indirect ELISA, hybridoma supernatant, coated antigen B at 1 µg/ml

Row | Binder | OD 450 [OD 450]
7 | B1 | 0.121
8 | B2 | 0.146
9 | B3 | 0.134
10 | B4 | 0.154
11 | B5 | 0.115
12 | B6 | 0.107
